# US20160152729A1
# Target: human TFPIα (human) (UniProt P10646)
# Experiment: SPR Biacore T200; antibody captured on anti-human IgG Fc; TFPI as analyte; 1:1 model
substance,measurement,value
Bay 2A8-K95L (antibody),Kd,0.485 nM
same,koff,0.000399 s⁻¹
same,kon,822000 M⁻¹ s⁻¹
